Measured values from patent EP4663654A1 (Hangzhou Sciwind Biosciences Co., Ltd., dated 2025).
Starred links: 1 amine or outer side, 2 acyl side, 3 side chain; linkers in the order of their positions; H or OH if unused. Non-standard residues stand in square brackets, D forms with d. *: point of attachment. C20 diacid = O=C(O)CCCCCCCCCCCCCCCCCCC(=O)*; γGlu = O=C(O)[C@H](CCC(=O)[*:2])N[*:1]; Hyp = O=C(O)[C@@H]1C[C@@H](O)CN1

T1: human amylin receptor (AMY3) on CHO-K1/Ga15/AMY3 amylin receptor/CRE-luc cells (human, UniProt P30988 25-474; O60896 24-148)
T1 sequence (looked up) 1: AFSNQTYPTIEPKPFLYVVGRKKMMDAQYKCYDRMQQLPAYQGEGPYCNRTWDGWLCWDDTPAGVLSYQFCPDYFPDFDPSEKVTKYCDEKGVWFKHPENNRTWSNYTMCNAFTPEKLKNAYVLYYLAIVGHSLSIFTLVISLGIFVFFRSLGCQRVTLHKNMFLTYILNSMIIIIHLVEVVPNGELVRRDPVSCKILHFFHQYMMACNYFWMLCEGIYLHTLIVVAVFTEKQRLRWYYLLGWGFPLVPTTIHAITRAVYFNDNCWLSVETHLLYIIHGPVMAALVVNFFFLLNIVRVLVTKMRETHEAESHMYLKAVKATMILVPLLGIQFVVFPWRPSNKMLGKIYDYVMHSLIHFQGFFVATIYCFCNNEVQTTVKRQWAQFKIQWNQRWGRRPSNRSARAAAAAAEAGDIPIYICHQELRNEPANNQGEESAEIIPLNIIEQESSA
T1 sequence (looked up) 2: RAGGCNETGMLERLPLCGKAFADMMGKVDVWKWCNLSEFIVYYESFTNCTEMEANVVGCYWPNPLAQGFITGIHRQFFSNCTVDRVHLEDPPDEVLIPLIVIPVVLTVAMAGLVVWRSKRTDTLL

B1: polypeptide derivative M51 (peptide)
peptide: {C20 diacid-γGlu}-ASQLSTAATQRLADFLRHSSGNLKPILPPTNVGSNT[Hyp]-NH2
SMILES: CC[C@H](C)[C@H](NC(=O)[C@@H]1CCCN1C(=O)[C@H](CCCCN)NC(=O)[C@H](CC(C)C)NC(=O)[C@H](CC(N)=O)NC(=O)CNC(=O)[C@H](CO)NC(=O)[C@H](CO)NC(=O)[C@H](Cc1c[nH]cn1)NC(=O)[C@H](CCCNC(=N)N)NC(=O)[C@H](CC(C)C)NC(=O)[C@H](Cc1ccccc1)NC(=O)[C@H](CC(=O)O)NC(=O)[C@H](C)NC(=O)[C@H](CC(C)C)NC(=O)[C@H](CCCNC(=N)N)NC(=O)[C@H](CCC(N)=O)NC(=O)[C@@H](NC(=O)[C@H](C)NC(=O)[C@H](C)NC(=O)[C@@H](NC(=O)[C@H](CO)NC(=O)[C@H](CC(C)C)NC(=O)[C@H](CCC(N)=O)NC(=O)[C@H](CO)NC(=O)[C@H](C)NC(=O)CC[C@H](NC(=O)CCCCCCCCCCCCCCCCCCC(=O)O)C(=O)O)[C@@H](C)O)[C@@H](C)O)C(=O)N[C@@H](CC(C)C)C(=O)N1CCC[C@H]1C(=O)N1CCC[C@H]1C(=O)N[C@H](C(=O)N[C@@H](CC(N)=O)C(=O)N[C@H](C(=O)NCC(=O)N[C@@H](CO)C(=O)N[C@@H](CC(N)=O)C(=O)N[C@H](C(=O)N1C[C@H](O)C[C@H]1C(N)=O)[C@@H](C)O)C(C)C)[C@@H](C)O
B2: polypeptide derivative M52 (peptide)
peptide: {C20 diacid-γGlu}-ASQLSTAATQRLADFLRHSSHNLKPILPPTNVGSNT[Hyp]-NH2
SMILES: CC[C@H](C)[C@H](NC(=O)[C@@H]1CCCN1C(=O)[C@H](CCCCN)NC(=O)[C@H](CC(C)C)NC(=O)[C@H](CC(N)=O)NC(=O)[C@H](Cc1c[nH]cn1)NC(=O)[C@H](CO)NC(=O)[C@H](CO)NC(=O)[C@H](Cc1c[nH]cn1)NC(=O)[C@H](CCCNC(=N)N)NC(=O)[C@H](CC(C)C)NC(=O)[C@H](Cc1ccccc1)NC(=O)[C@H](CC(=O)O)NC(=O)[C@H](C)NC(=O)[C@H](CC(C)C)NC(=O)[C@H](CCCNC(=N)N)NC(=O)[C@H](CCC(N)=O)NC(=O)[C@@H](NC(=O)[C@H](C)NC(=O)[C@H](C)NC(=O)[C@@H](NC(=O)[C@H](CO)NC(=O)[C@H](CC(C)C)NC(=O)[C@H](CCC(N)=O)NC(=O)[C@H](CO)NC(=O)[C@H](C)NC(=O)CC[C@H](NC(=O)CCCCCCCCCCCCCCCCCCC(=O)O)C(=O)O)[C@@H](C)O)[C@@H](C)O)C(=O)N[C@@H](CC(C)C)C(=O)N1CCC[C@H]1C(=O)N1CCC[C@H]1C(=O)N[C@H](C(=O)N[C@@H](CC(N)=O)C(=O)N[C@H](C(=O)NCC(=O)N[C@@H](CO)C(=O)N[C@@H](CC(N)=O)C(=O)N[C@H](C(=O)N1C[C@H](O)C[C@H]1C(N)=O)[C@@H](C)O)C(C)C)[C@@H](C)O

Molecular target: T1, human amylin receptor (AMY3) on …
Assay: cell-based or functional assay

| Binder | EC50/nM, CRE-luciferase reporter in amylin receptor/CRE-luc CHO cells [nM] | Relative activity (the EC50 ratio of Cagrilintide to the compound) [%] |
| --- | --- | --- |
| B1 | 0.08 | 163 |
| B2 | 0.09 | 178 |
